Assay results reported in publication PMC2198949 (The Journal of Experimental Medicine, 1997).

Target: T1, murine 4-1BBL–CD8 fusion protein (mouse, UniProt P41274 104-309)
T1 sequence (looked up): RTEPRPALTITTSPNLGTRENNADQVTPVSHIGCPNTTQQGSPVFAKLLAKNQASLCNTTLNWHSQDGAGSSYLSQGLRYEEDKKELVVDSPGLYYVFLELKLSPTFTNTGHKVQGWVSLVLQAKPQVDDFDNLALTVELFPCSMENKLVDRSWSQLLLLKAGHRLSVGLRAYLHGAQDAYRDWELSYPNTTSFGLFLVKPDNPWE
Assay: SPR

- Kd: 1.16 nM
- koff: 0.000213 s⁻¹
- kon: 183000 M⁻¹ s⁻¹
B1: murine 4-1BB–Ig fusion protein (Fc fusion, mouse, UniProt P20334 22-185, looked up)
chain: GAVQNSCDNCQPGTFCRKYNPVCKSCPPSTFSSIGGQPNCNICRVCAGYFRFKKFCSSTHNAECECIEGFHCLGPQCTRCEKDCRPGQELTKQGCKTCSLGTFNDQNGTGVCRPWTNCSLDGRSVLKTGTTEKDVVCGPPVVSFSPSTTISVTPEGGPGGHSLQ
